Square brackets hold non-standard residues; d marks the D form. Phe(3,4-Cl2) = N[C@@H](Cc1ccc(Cl)c(Cl)c1)C(=O)O; Phe(4-Br) = N[C@@H](Cc1ccc(Br)cc1)C(=O)O; Phe(4-Cl) = N[C@@H](Cc1ccc(Cl)cc1)C(=O)O; Phe(4-Me) = Cc1ccc(C[C@H](N)C(=O)O)cc1; Cha = N[C@@H](CC1CCCCC1)C(=O)O
What was measured:
[1] = target: E. coli β clamp (β subunit of DNA polymerase III, dnaN gene product), N-tagged (E. coli) (UniProt P0A988); assay: ITC / SPR
[2] = target: E. coli β clamp (β subunit of DNA polymerase III, dnaN gene product), N-tagged (E. coli) (UniProt P0A988); assay: ITC
[3] = target: E. coli β clamp (β subunit of DNA polymerase III, dnaN gene product), N-tagged (E. coli) (UniProt P0A988); assay: ITC, peptide 400 µM into β ring 20 or 30 µM, 25° C
[4] = target: E. coli β clamp (β subunit of DNA polymerase III, dnaN gene product), N-tagged (E. coli) (UniProt P0A988)
[5] = target: E. coli β clamp (β subunit of DNA polymerase III, dnaN gene product), N-tagged (E. coli) (UniProt P0A988); assay: SPR competition on immobilised P1
[6] = target: E. coli β clamp (β subunit of DNA polymerase III, dnaN gene product) (E. coli) (UniProt P0A988); assay: ITC, peptide 400 µM into β ring 30 µM, 25 °C
Sequence of E. coli β clamp (β subunit of DNA polymerase III, dnaN gene product) (E. coli) (P0A988 whole entry): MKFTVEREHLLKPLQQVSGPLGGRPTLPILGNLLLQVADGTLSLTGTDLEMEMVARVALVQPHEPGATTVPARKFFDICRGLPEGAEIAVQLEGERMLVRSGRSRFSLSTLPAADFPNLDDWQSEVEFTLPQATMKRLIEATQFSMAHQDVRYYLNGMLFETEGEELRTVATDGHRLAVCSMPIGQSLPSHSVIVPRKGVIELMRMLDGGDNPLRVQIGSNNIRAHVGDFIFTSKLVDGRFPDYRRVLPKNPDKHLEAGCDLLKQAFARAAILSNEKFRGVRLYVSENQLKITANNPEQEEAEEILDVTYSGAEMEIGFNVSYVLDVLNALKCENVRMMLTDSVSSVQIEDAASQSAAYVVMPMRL

[7] = target: E. coli β clamp (β subunit of DNA polymerase III, dnaN gene product), N-tagged (E. coli) (UniProt P0A988); assay: SPR competition on immobilised P1; ΔG = -RT ln Ki
[8] = target: E. coli β clamp (β subunit of DNA polymerase III, dnaN gene product) (E. coli) (UniProt P0A988); assay: ITC, peptide 400 µM into β ring 30 µM, 25 °C, second experiment
[9] = target: E. coli β clamp (β subunit of DNA polymerase III, dnaN gene product) (E. coli) (UniProt P0A988); assay: SPR competition, β ring on immobilised P1
[10] = target: E. coli β clamp (β subunit of DNA polymerase III, dnaN gene product), N-tagged (E. coli) (UniProt P0A988); assay: SPR competition (Biacore 3000): β ring 0.25 µM mixed with the challenger, injected on immobilised P1
[11] = target: T1, E. coli β clamp (β subunit of DNA polymerase III, dnaN gene product) (E. coli, UniProt P0A988 1-366); assay: SPR competition, β ring on immobilised P1
T1 construct: Expressed in BL21 E. coli from pET15b with an N-terminal tag; also called β ring; β protein; not shown: N-terminal tag from plasmid pET15b ('N-tagged protein', purified on Ni-NTA)
T1 sequence (P0A988 whole entry): as above

[12] = target: T1, E. coli β clamp (β subunit of DNA …); assay: ITC, peptide 400 µM into β ring 30 µM, 25 °C
[13] = target: T1, E. coli β clamp (β subunit of DNA …); assay: from ITC data; compared residues L/Cha
[14] = target: T1, E. coli β clamp (β subunit of DNA …); assay: ITC, peptide 400 µM into β ring 30 µM, 25 °C, second experiment
[15] = target: T1, E. coli β clamp (β subunit of DNA …); assay: SPR competition, concentration of peptide that challenges 50% of the binding of β ring to P1
[16] = target: T2, E. coli β clamp (β subunit of DNA polymerase III, dnaN gene product), N-tagged (E. coli, UniProt P0A988 1-366); assay: ITC, peptide 400 µM into β ring 30 µM, 25° C
T2 construct: The dnaN gene was cloned in pET15b and expressed in BL21 E. coli; also called β ring; β protein; not shown: N-terminal tag from the pET15b vector (N-tagged protein, enriched on Ni-NTA)
T2 sequence (P0A988 whole entry): as above

[17] = target: T2, E. coli β clamp (β subunit of DNA …); assay: SPR competition (Biacore 3000): β ring 0.25 µM mixed with the challenger, injected on immobilised P1
[18] = target: T2, E. coli β clamp (β subunit of DNA …); assay: SPR competition on immobilised P1
[19] = target: T2, E. coli β clamp (β subunit of DNA …); assay: SPR competition on immobilised P1; ΔG = -RT ln Ki
[20] = target: T2, E. coli β clamp (β subunit of DNA …); assay: SPR direct binding: β protein (0.125 µM to 2 µM) injected on immobilised P1, 1:1 Langmuir model
[21] = target: T1, E. coli β clamp (β subunit of DNA …); assay: ITC, peptide 400 µM into β ring 20 µM, 25 °C, second experiment
[22] = target: T1, E. coli β clamp (β subunit of DNA …); assay: from ITC data; compared residues F/pMeF
[23] = target: T1, E. coli β clamp (β subunit of DNA …); assay: ITC, peptide 400 µM into β ring 20 µM, 25 °C
[24] = target: T2, E. coli β clamp (β subunit of DNA …); assay: cell-based or functional assay
[25] = target: T2, E. coli β clamp (β subunit of DNA …); assay: SPR competition against P1
[26] = target: T1, E. coli β clamp (β subunit of DNA …); assay: from ITC data; compared residues F/pBrF
[27] = target: T1, E. coli β clamp (β subunit of DNA …); assay: from ITC data; compared residues pMeF/pBrF
[28] = target: T1, E. coli β clamp (β subunit of DNA …); assay: from ITC data; compared residues pClF/diClF
[29] = target: T1, E. coli β clamp (β subunit of DNA …); assay: from ITC data; compared residues F/diClF
[30] = target: T1, E. coli β clamp (β subunit of DNA …); assay: from ITC data; compared residues pMeF/diClF
[31] = target: T1, E. coli β clamp (β subunit of DNA …); assay: from ITC data; compared residues pBrF/diClF
[32] = target: T1, E. coli β clamp (β subunit of DNA …); assay: from ITC data; compared residues pBrF/pClF
[33] = target: T1, E. coli β clamp (β subunit of DNA …); assay: from ITC data; compared residues pMeF/pClF
[34] = target: T1, E. coli β clamp (β subunit of DNA …); assay: from ITC data; compared residues F/pClF

Sequence of E. coli β clamp (β subunit of DNA polymerase III, dnaN gene product), N-tagged (E. coli) (P0A988 whole entry): as above

For P14 (Ac-Q Cha DL diClF) (peptide), the fold increase in binding against P6 [1] was 10 to 15 fold, the Kd [2] was 60 nM and the Kd [3] was 65 nM. For the same molecule, the IC50, Pol IV based biochemical assay (inhibition of β dependent Pol IV elongation) [4] was 125 nM, the IC50 [5] was 70 nM and the fold increase against P1 [5] was 115 fold. For the same molecule, the fold increase against P6 [5] was 15 fold and the fold increase against the full PolIV enzyme [5] was 4 fold.

In the case of “P3 (RQLVLF) (peptide; other documents disagree on this pair)”, the Kd [6] is reported as 2820 nM, the ΔG [6] is reported as -7.5 kcal/mol and the ΔH [6] is reported as -5.77 kcal/mol. The ΔS [6] was 6.05 cal/mol/deg, the ΔG [7] was -7.04 kcal/mol and the Kd [8] was 2320 nM. For the same molecule, the ΔG [8] was -7.6 kcal/mol, the ΔH [8] was -5.7 kcal/mol and the ΔS [8] was 6.6 cal/mol/deg. It also gave an IC50 [9] of 8620 nM and an IC50 [10] of 8620 nM.

B1: P7 (Ac-Gln-Cha-Asp-Leu-Phe-OH) (peptide)
peptide: Ac-Q[Cha]DLF-OH
SMILES: CC(=O)N[C@@H](CCC(N)=O)C(=O)N[C@@H](CC1CCCCC1)C(=O)N[C@@H](CC(=O)O)C(=O)N[C@@H](CC(C)C)C(=O)N[C@@H](Cc1ccccc1)C(=O)O
notes: also called AcQChaDLF; Ac Q Cha D L F
Work on B1 yielded an IC50 [11] of 170 nM, a Kd [12] of 246 nM and a ΔG [12] of -8.9 kcal/mol. The ΔH [12] was -21.3 kcal/mol, the ΔS [12] was -41.2 cal/mol/deg and the “ΔΔG (ΔGj - ΔGi) of P7 against P6” value [13] was -0.66 kcal/mol. For the same molecule, the Kd [14] was 222 nM, the ΔG [14] was -8.9 kcal/mol and the ΔH [14] was -20.5 kcal/mol. It also gave a ΔS [14] of -38.5 cal/mol/deg and a Ki [15] of 170 nM.

B2: P1, natural C-terminal heptapeptide of E. coli DNA polymerase IV (RQLVLGL) (peptide)
peptide: H-RQLVLGL-OH
notes: Used free in solution as challenger and immobilised on the SPR chip; the way of immobilisation is not described; also called natural Cter heptamer; natural heptapeptide
In the case of B2, the Kd [16] is reported as 1000 to 2000 nM, the IC50 [17] is reported as 8850 nM and the “fold less efficient binding than the whole polymerase (PolIV)” value [18] is reported as 30 fold. It also gave a ΔG [19] of -7.06 kcal/mol and a Kd [20] of 285 nM.

B3: P11 (Ac-Gln-Cha-Asp-Leu-pMePhe-OH) (peptide)
peptide: Ac-Q[Cha]DL[Phe(4-Me)]-OH
SMILES: CC(=O)N[C@@H](CCC(N)=O)C(=O)N[C@@H](CC1CCCCC1)C(=O)N[C@@H](CC(=O)O)C(=O)N[C@@H](CC(C)C)C(=O)N[C@@H](Cc1ccc(C)cc1)C(=O)O
notes: also called AcQChaDLpMeF; Ac-Q Cha DL pMeF
With B3 the Kd [21] was 362 nM, the ΔG [21] was -8.6 kcal/mol and the ΔH [21] was -14.4 kcal/mol. For the same molecule, the ΔS [21] was -19 cal/mol/deg, the IC50 [11] was 260 nM and the “ΔΔG (ΔGj - ΔGi) of P11 against P7” value [22] was 0.25 kcal/mol. For the same molecule, the Kd [23] was 401 nM, the ΔG [23] was -8.6 kcal/mol and the ΔH [23] was -14.8 kcal/mol. It also gave a ΔS [23] of -20.4 cal/mol/deg.

B4: P7 (Ac Q Cha DLF) (peptide)
peptide: Ac-Q[Cha]DLF-OH
SMILES: CC(=O)N[C@@H](CCC(N)=O)C(=O)N[C@@H](CC1CCCCC1)C(=O)N[C@@H](CC(=O)O)C(=O)N[C@@H](CC(C)C)C(=O)N[C@@H](Cc1ccccc1)C(=O)O
notes: also called Ac-Gln-Cha-Asp-Leu-Phe-OH
For B4, the “fold increase in the interaction against P6” value [18] was 6 fold, the “IC50, Pol IV based biochemical assay (inhibition of β dependent Pol IV elongation)” value [24] was 2800 nM and the “fold decrease in affinity against P14” value [25] was 2 fold.

B5: P13 (Ac-Gln-Cha-Asp-Leu-pBrPhe-OH) (peptide)
peptide: Ac-Q[Cha]DL[Phe(4-Br)]-OH
SMILES: CC(=O)N[C@@H](CCC(N)=O)C(=O)N[C@@H](CC1CCCCC1)C(=O)N[C@@H](CC(=O)O)C(=O)N[C@@H](CC(C)C)C(=O)N[C@@H](Cc1ccc(Br)cc1)C(=O)O
notes: also called AcQChaDLpBrF; Ac-Q Cha DL pBrF
Work on B5 yielded a Kd [21] of 167 nM, a ΔG [21] of -9.1 kcal/mol and a ΔH [21] of -15.2 kcal/mol. The ΔS [21] was -20.2 cal/mol/deg, the IC50 [11] was 96 nM and the “ΔΔG (ΔGj - ΔGi) of P13 against P7” value [26] was -0.28 kcal/mol. For the same molecule, the “ΔΔG (ΔGj - ΔGi) of P13 against P11” value [27] was -0.53 kcal/mol, the Kd [23] was 136 nM and the ΔG [23] was -9.3 kcal/mol. For the same molecule, the ΔH [23] was -18.1 kcal/mol and the ΔS [23] was -29.3 cal/mol/deg.

B6: P14 (Ac-Gln-Cha-Asp-Leu-(3,4-di-Cl)Phe-OH) (peptide)
peptide: Ac-Q[Cha]DL[Phe(3,4-Cl2)]-OH
SMILES: CC(=O)N[C@@H](CCC(N)=O)C(=O)N[C@@H](CC1CCCCC1)C(=O)N[C@@H](CC(=O)O)C(=O)N[C@@H](CC(C)C)C(=O)N[C@@H](Cc1ccc(Cl)c(Cl)c1)C(=O)O
notes: also called AcQChaDLdiClF; Ac Q Cha D L diClF
With B6 the “ΔΔG (ΔGj - ΔGi) of P14 against P12” value [28] was -0.2 kcal/mol, the Kd [21] was 55 nM and the ΔG [21] was -9.8 kcal/mol. For the same molecule, the ΔH [21] was -18.1 kcal/mol, the ΔS [21] was -27.6 cal/mol/deg and the IC50 [11] was 77 nM. The “ΔΔG (ΔGj - ΔGi) of P14 against P7” value [29] was -0.8 kcal/mol, the “ΔΔG (ΔGj - ΔGi) of P14 against P11” value [30] was -1.05 kcal/mol and the Kd [23] was 73 nM. It also gave a ΔG [23] of -9.6 kcal/mol, a ΔH [23] of -18.9 kcal/mol and a ΔS [23] of -30.8 cal/mol/deg. For the same molecule, the “ΔΔG (ΔGj - ΔGi) of P14 against P13” value [31] was -0.52 kcal/mol and the Ki [15] was 85 nM.

B7: P12 (Ac-Gln-Cha-Asp-Leu-pClPhe-OH) (peptide)
peptide: Ac-Q[Cha]DL[Phe(4-Cl)]-OH
SMILES: CC(=O)N[C@@H](CCC(N)=O)C(=O)N[C@@H](CC1CCCCC1)C(=O)N[C@@H](CC(=O)O)C(=O)N[C@@H](CC(C)C)C(=O)N[C@@H](Cc1ccc(Cl)cc1)C(=O)O
notes: also called AcQChaDLpClF; Ac-Q Cha DL pClF
Molecule B7 has a Kd [21] of 122 nM, a ΔG [21] of -9.4 kcal/mol and a ΔH [21] of -14.3 kcal/mol. The ΔS [21] was -16.3 cal/mol/deg, the “ΔΔG (ΔGj - ΔGi) of P12 against P13” value [32] was -0.32 kcal/mol and the IC50 [11] was 160 nM. For the same molecule, the “ΔΔG (ΔGj - ΔGi) of P12 against P11” value [33] was -0.85 kcal/mol, the Kd [23] was 89 nM and the ΔG [23] was -9.6 kcal/mol. For the same molecule, the ΔH [23] was -15 kcal/mol, the ΔS [23] was -18.1 cal/mol/deg and the “ΔΔG (ΔGj - ΔGi) of P12 against P7” value [34] was -0.6 kcal/mol.
